Results as given in the DeepSol protein solubility set.

Assay: soluble on expression in E. coli; label from the status in PepcDB or PDB records

Sequence | soluble on expression in E. coli
HAEVIASGRLEKCVVDGVTEELDCQEKVVVTLTVGNGQSLQTEALEFSLSCLNSPDGRCPCSCSAADPTCACRDLAAPLRVSLTKSPLWASYPLQYLSSFNWKPLEVILRPSNKVCKDGDWEDSPTCGWFSQGGVRVADSQGFCCECSSSQVWDDTFGSSKERTRANLDCDFWSDPLDILIGRKPVSAHCLTFDPQWYSGYELGAASLQFEIAITVEVPTAPSPTTATTSATPRTNNSSSANSTNSTNSPAPQFLSPPAPSTREVLHLGPSVPLASSASRLLSAKLLGDLAMYTQLPAISNQVLMVPQPPAAAAATGSPLDATLATNRSAWMLLDKTMLSMDGLACDKVGTGFSAFRYQPSGCGRAPQACLSGQLKDLWEADLARIADGRVPLYMITRFTGGSDTTLQSFSGGPLSFALPVTSHSQSLVTLSVAADGVRLVTNRSPGKITGAAVCRFAGTSCGGFEAVAARGYIYVNITNTGRLDSDYTLTVSNCSSNVRPIEARTLAVRAGSAASLDPPMELYVEDQAAAAARTCTVSLYDSVGAVTDSLTLSFYTNATQLVVKPSGGYNGTGDGAGVKRNGTDCSTACTNPIDVLCFVTKKCWSKFGR | not soluble
HDNYADLSDTELTTLLRRYNIPHGPVVGSTRRLYEKKIFEYETQRRR | soluble
HHHHHHMSKRETFNETFLKAARGEKADHTPVWYMRQAGRSQPEYRKLKEKYGLFEITHQPELCAYVTRLPVEQYGVDAAILYKDIMTPLPSIGVDVEIKNGIGPVIDQPIRSLADIEKLGQIDPEQDVPYVLETIKLLVNEQLNVPLIGFSGAPFTLASYMTEGGPSKNYNKTKAFMYSMPDAWNLLMSKLADMIIVYVKAQIKAGAKAIQIFDSWVGALNQADYRTYIKPVMNRIFSELAKENVPLIMFGVGASHLAGDWHDLPLDVVGLDWRLGIDEARSKGITKTVQGNLDPSILLAPWEVIEQKTKEILDQGMESDGFIFNLGHGVFPDVSPEVLKKLTAFVHEYSQNKKMGQYS | soluble
HHPEAGNFKQRVILSHVGFDRPTVLVTEGYTAHYATHPRYQEELSKLFNANLVFVEYRYFGESMPKPCNWDYLTVENSLYDLHHVTTTLKQLYDEKWIATGISKGGQTTMFYRTYFPDDVDISVPYVAPLNQSLEDGRHEPFIANKVSTPENRKRVENFQLEVLKRKSRLLPIFEKYCSDKGYTFRIPIAEVYDFNVLEYSFALWQWGTPVNKIPETNADDHTLFKHFMAICEPDYFSEQSPYPSFNVQAAKELGYYGYDIKPFKKYLTIKSSRDYLHKVMLPPELSNLKFDKTLYNKVVKFLKENDPEMIYIYGGDDPWTASGVTWLKNKKNIKVYVLPGGSHTTRIGSFDTDTQEEIKTQINAWLNKE | not soluble
HITHKLLIPAWDGIVLEGLSVKERKTTNNTVVLALIGHFQTEHHYLNTSFHEFQELFGTELVLINHRNYSNRSNKFANSAEEIARDVLAFAKHFRQKNKKIVLYGMCGGAAHMILAA | not soluble
HMGCAFLTYCARDSALKAQSALHEQKTLPGMNRPIQVKPADSESRGEDRKLFVGMLGKQQTDEDVRKMFEPFGTIDECTVLRGPDGTSKGCAFVKFQTHAEAQAAINTLHSSRTLPGASSSLVVKFADTEKERGLRRMQQVATQLGMFSPIALQFGAYSAYTQALMQQQAALVAAHSAYLSPMATMAAVQMQHMAAINANGLIATPITPSSGTSTPPAIAATPVSAIPAALGVNGYSPVPTQPTGQPAPDALYPNGVHPYPAQSPAAPVDPLQQAYAGMQHYTAAYPAAYSLVAPAFPQPPALVAQQPPPPPQQQQQQQQQQQQQQQREGPDGCNIFIYHLPQEFTDSEILQMFVPFGHVISAKVFVDRATNQSKCFGFVSFDNPASAQAAIQAMNGFQIGMKRLKVQLKRPKDANRPY | soluble
HMSKVPRNFRLLEELEKGEKGFGPESCSYGLADSDDITMTKWNGTILGPPHSNHENRIYSLSIDCGPNYPDSPPKVTFISKINLPCVNPTTGEVQTDFHTLRDWKRAYTMETLLLDLRKEMATPANKKLRQPKEGETF | soluble
HPGEVIVLIHGLMRTYVSMKPLKAYLEAQGYQVYLYKYPSARYNIQEHGVYLNQFITTILENNPAIKIHFVTHSLGGIIVREALSKLSQKQLKHVGYLIMLAPPNQGSKLAKFSIKLFPMISYFIKPLAELSSEQTSYVHRVPVPDIKMGIIAGRFDAKVPPDYARLQGQTEQVIINNTHTFIMYDSKVKKLVLSFLEKGKFE | not soluble
HQCQGCGSTQLISVGVGTEQLETQLTNLFPEYKTVRIDRDSTRRKGSLEDYLEAIKNNEYQILIGTQMLAKGHHFPNVTLVGLIDVDSSLFSSDFRAPERLAQLFIQVAGRAGRASKPGEVILQTHHPE | not soluble
HWCNIAGWPDFDTFLATMDHKHRKNIRQERAKVARSGVRIQSIHGDEATPIELKAMHHFYVNTFHQYGNAPALTLPFLTHLAKTIPRQLVLFMATLNGKLIGGSLCLRSAKTLYGRHWGGAALPGLHFETCYYQGIDYCLREGLTRFEPGAQGKHKIARG | not soluble
IADVVPLDQNNRILAYQGLMRIRARHCRLGIIALAEVANRNVEQFTSSDLGFCIGPRLNAAGRLDNMSIGVELLLANEMSKARELALDLDQLNQTRKEIEAGMKLEAIKICQNLTALFKELPYGITLYQPDWHQGVLGIV | not soluble
IDEKPSDLLLDRIESRFNFDVPRGEGHNTVQAIKAMEEGQAKVFIGLGGNFAQATPDTERTHNAMRNCNLTVHISTKLNRSHLVTGKDALILPCLGRTEIDQQATGPQGVTVEDTFSMVHISFGQLKPRSEHLRSEPAIIAGIANATLGAKPIDWLWAIEDYDRIRDLIADTIPGFTDFNHKLKHPGGFHLVNPAAERRWNTPSGKAQFSSSELPKQLISEAILEKGQKPDLILQTMRSHDQYNTTLYGLNDRYRGVFGMREVLFINEADIRKLGFEPGDKVDMVSLWEDGVERRVSGFTLVAYDVPAGQAAAYYPETNPLVPLDSYGDRTFTPTSKFIAIKLEKSTSNKIALVETE | not soluble
IDKITYPTRIGAVVFPHKKHQDALGECRGCHEKGPGRIDGFDKVMAHGKGCKGCHEEMKIGPVRCGDCHKGGSTH | soluble
IDPFTADAGHTEFTDEVYQNESRYPGGDWKPAEDTYTDANGDKAASPSELTCPPGWEWEDDAWSYDINRAVDEKGWEYGITIPPDHKPKSWVAAEKMYHTHRRRRLVRKRKKDLTQTASSTAR | soluble
IDQLNRNQLDLGMCYVDQVNTAYFDVIELDSTKLGVLFDERHFDFAESEVLWESLNNIPLGLLSKGMHYRHSIDLSFVSKGLVPQTVIESNSTFHLIQAVTSGLCCAIMPLNCGLEELNDTLRIIPIEEAAVHAPLGLLKRKQEPFSALTDQCFAEAKNIFNR | not soluble
IGKVNYNIGFNLSDNRAKVISYPNASKALWDSNGNTLYYNGMTIGEIWGYETEGIAKTDAQMTEWLASNDQSKIGSVWGAGDIMYRDLNGDGIVDKGNSTATDHGDLKKIGNSTPRLRFGLSLGADWKGFDIQMFFQGVMKRDLWLSGPMFWGADGGEWQSVGFDEHLDYFRPENTTSIFGANLNSYYPKAYLGDKGNKNKQTQTRYLQNGAYMRMKNLQIGYTFPKAWMNKAKIEKLRIYVSGENLFTISGIADMFDPEATAGNGFSNGKTYPLSKTISFGLNITL | not soluble
IHHLPPVKAPLQTKKKIMKHCFLCGKKTGLATSFECRCGNNFCASHRYAEAHGCNYDYKSAGRRYLEEANPV | soluble
IHVNSKEEAIISLVDVVSKEGYLIDKNQFLKDVLKREETLSTYIGHGIGLPHSQSVGVKNSCITIGKLDTPIEWTEEGEKVDLIFLISVTKDNENNLHLKILSKLARLLMHESFRNQIRCSDEQTVYNLIKEKIEE | not soluble
IIGGQKAKMGNFPWQVFTNIHGRGGGALLGDRWILTAAHTLYPKEHEAQSNASLDVFLGHTNVEELMKLGNHPIRRVSVHPDYRQDESYNFEGDIALLELENSVTLGPNLLPICLPDNDTFYDLGLMGYVSGFGVMEEKIAHDLRFVRLPVANPQACENWLRGKNRMDVFSQNMFCAGHPSLKQDACQGDSGGVFAVRDPNTDRWVATGIVSWGIGCSRGYGFYTKVLNYVDWIKKEMEEED | soluble
IINGEDCSPHSQPWQAALVMENELFCSGVLVHPQWVLSAAHCFQNSYTIGLGLHSLEADQEPGSQMVEASLSVRHPEYNRPLLANDLMLIKLDESVSESDTIRSISIASQCPTAGNSCLVSGWGLLANGRMPTVLQCVNVSVVSEEVCSKLYDPLYHPSMFCAGGGQDQKDSCNGDSGGPLICNGYLQGLVSFGKAPCGQVGVPGVYTNLCKFTEWIEKTVQA | soluble
IKDFDYNIGFNMSTTKNKVVELSDADQVLQGEGLKYGTEHFPTETRVGKPIGAFYLYRTDGIFQSMDEVNAHVNKDGQLLQPNAQPGDIRFKDLDGNGSIDAGDKEYCGSGIPTLEANLNLSFGYKGFDLSIVLGSAWNFKLYNGNKYFYEGMNSKSNMLKSTLNAWTPDNRNTDVPRAVYQDPNGNMKESDRFLENGDFVRLRQAQLGYTLPKSLMQKFYIEKLRFYVSGENLFTITGYDGIDPEFSRASVLNTGVDKLIYPFTRSFTVGAQLTF | not soluble
ILQTTVDGNSTAISNLKSDISSNGLAITDLQDRVKSLESTASHGLSFSPPLSVADGVVSLDMDPYFCSQRVSLTSYSAEAQLMQFRWMARGTNGSSDTIDMTVNAHCHGRRTDYMMSSTGNLTVTSNVVLLTFDLSDITHIPSDLARLVPSAGFQAASFPVDVSFTRDSATHAYQAYGVYSSSRVFTITFPTGGDGTANIRSLTVRTGIDT | soluble
INPPQHKQFQNLMPMQPRRYPEGKVLPDREREFPNTFPEHSSPLLLPKQELDMRWRGPHPLPGY | not soluble
IPADELFSRDALRKVEDIRNKTKNKSYIRKALKKPWNILVGSLPVGFDFPARIIAEIVDAPKLSLEGLVKKANYYLSEGADIVDIGMVAGETNVKFLDVIPEFREVLGREVPISLDSLNAKELEAGLDFVDMILSVDWSNVEDLVTDKPVVLIPTDMKNGYFPLNPRDRVESLEKLKEKALSLGYKRIIADLILEHYPGFSRSIVAFSLYRDRNREDIMLAGVGNVTEMTDADSPGINALLAGIASELRISMLLTTEVSRKCTGSIRELRRAIDMTLLGGVKDVGLNLLLLKEKKDKGLRFEISKNIVEAKRKEVKLEDTYFRIFVDNGKIYVNAYKGMNLVITIVGNEPNEIMDTILDYFSLSPRHAFYLGRELEKAYTALKLRRSYAQEEELFRDFYTK | not soluble
IRHEITSRTSVSVLVNRCNWFCTSPKCSGLTVMGCLCVAMSVAKKDKPTMSVTALINWARPLPPGQQQQPMTPTSPGNMLQPMATPSNLPTVDCSLDIQWLNLEGGFMSPMSPPEMKPDTAMLDGLRDDSTPPPAFKNYPPNHPLSGSKHLCSICGDRASGKHYGVYSCEGCKGFFKRTVRKDLTYACREERNCIIDKRQRNRCQYCRYQKCLACGMKREAVQEERQRAARGTEDAHPSSSVQVQELSIERLLEMESLVADPSEEFQFLRVGPDSNVPPKFRAPVSSLCQIGNKQIAALVVWARDIPHFSQLEMEDQILLIKGSWNELLLFAIAWRSMEFLTEERDGVDGTGNRTTSPPQLMCLMPGMTLHRNSALQAGVGQIFDRVLSELSLKMRTLRVDQAEYVALKAIILLNPDVKGLKNRQEVEVLREKMFLCLDEYCRRSRSSEEGRFAALLLRLPALRSISLKSFEHLFFFHLVADTSIAGYIRDALRNHAPPIDTNMM | soluble
KAEMRHMENKVLESELRQRAVVEASLLETQGRLLEQLESAPEAIICLREDQRIRFANEAACKLFKRSLEQLKRS | not soluble
